Reference: patent US20220411483A1 (Chugai, published 2022)
Where a chain is given by its changes, count along the chain named.

T1: FcγRIIb extracellular domain with C-terminal His tag (human, UniProt P31994 43-217)
T1 construct: extracellular domain; also called FcgRIIb
T1 sequence (looked up): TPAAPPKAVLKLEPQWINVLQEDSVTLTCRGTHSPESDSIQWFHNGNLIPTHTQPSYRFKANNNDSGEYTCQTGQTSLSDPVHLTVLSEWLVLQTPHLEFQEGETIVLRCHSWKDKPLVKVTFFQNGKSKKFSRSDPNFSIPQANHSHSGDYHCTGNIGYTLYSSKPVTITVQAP

T2: FcγRIIa R type extracellular domain with C-terminal His tag (human, UniProt P12318 34-217)
T2 construct: extracellular domain; also called FcgRIIaR
T2 sequence (looked up): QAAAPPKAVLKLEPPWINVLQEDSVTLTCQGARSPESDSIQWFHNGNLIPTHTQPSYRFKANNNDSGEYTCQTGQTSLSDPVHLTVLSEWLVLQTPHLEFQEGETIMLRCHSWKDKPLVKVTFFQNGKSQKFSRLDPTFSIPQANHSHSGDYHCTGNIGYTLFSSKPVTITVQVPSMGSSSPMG

T3: FcγRIIa R type extracellular domain, His tag (human, UniProt P12318 34-217)
T3 construct: extracellular domain; also called FcgRIIaR
T3 sequence (looked up): T2 sequence (looked up)

T4: FcγRIIb extracellular domain, His tag (human, UniProt P31994 43-217)
T4 construct: extracellular domain; also called FcgRIIb
T4 sequence (looked up): T1 sequence (looked up)

T5: FcγRIIb extracellular domain with C-terminal His tag (human, UniProt P31994 43-217)
T5 construct: extracellular domain; also called FcgRIIb; not shown: His tag at the C terminus
T5 sequence (looked up): T1 sequence (looked up)

T6: FcγRIIa R type extracellular domain with C-terminal His tag (human, UniProt P12318 34-217)
T6 construct: extracellular domain; also called FcgRIIaR; not shown: His tag at the C terminus
T6 sequence (looked up): T2 sequence (looked up)

B1: IL6R-BP239/IL6R-L (antibody, human IgG1, kappa, name in EU numbering)
heavy: QVQLQESGPGLVKPSETLSLTCAVSGHSISHDHAWSWVRQPPGEGLEWIGFISYSGITNYNPSLQGRVTISRDNSKNTLYLQMNSLRAEDTAVYYCARSLARTTAMDYWGEGTLVTVSSASTKGPSVFPLAPSSKSTSGGTAALGCLVKDYFPEPVTVSWNSGALTSGVHTFPAVLQSSGLYSLSSVVTVPSSSLGTQTYICNVNHKPSNTKVDKKVEPKSCDKTHTCPPCPAPDYLGDDSVFLFPPKPKDTLMISRTPEVTCVVVDVQDEDGEVKFNWYVDGVEVHNAKTKPREEQDNSTYRVVSVLTVLHQDWLNGKEYKCKVSNAALPRPIEKTISKAKGQPREPQVYTLPPSRDELTKNQVSLTCLVKGFYPSDIAVEWESNGQPENNYKTTPPVLDSDGSFFLYSKLTVDKSRWQQGNVFSCSVMHEALHNHYTQESLSLSP
light: not shown
notes: IgG1; alterations on IL6R-B3, EU numbering
B2: IL6R-BP084/IL6R-L (antibody, human IgG1, kappa, name in EU numbering)
heavy: B1 heavy with D235E, Y236L, D239G, Q269S, D270H, G273P, D298Y, V325M, A328K, R332K
light: not shown
notes: as for B1
B3: IL6R-BP206/IL6R-L (antibody, human IgG1, kappa, name in EU numbering)
heavy: B1 heavy with Y236L, D239G, Q269S, D270H, D298Y, A328K
light: not shown
notes: as for B1
B4: IL6R-2B261/IL6R-L (antibody, human IgG1, kappa, name in EU numbering)
heavy: B1 heavy with Y236L, D239G, Q269S, D270H, G273P, A328K, R332A
light: not shown
notes: as for B1
B5: IL6R-BP228/IL6R-L (antibody, human IgG1, kappa, name in EU numbering)
heavy: B1 heavy with D235E, D298Y, A328D
light: not shown
notes: as for B1
B6: IL6R-BP237/IL6R-L (antibody, human IgG1, kappa, name in EU numbering)
heavy: B1 heavy with R332K
light: not shown
notes: as for B1
B7: IL6R-BP201/IL6R-L (antibody, human IgG1, kappa, name in EU numbering)
heavy: B1 heavy with Y236L, Q269S, D270H, D298Y, A328K
light: not shown
notes: as for B1
B8: IL6R-BP130/IL6R-L (antibody, human IgG1, kappa, name in EU numbering)
heavy: B1 heavy with Y236L, D239G, Q269S, D270H, G273P, D298Y, V325M, A328K, R332K
light: not shown
notes: as for B1
B9: IL6R-BP195/IL6R-L (antibody, human IgG1, kappa, name in EU numbering)
heavy: B1 heavy with Q269S, R332K
light: not shown
notes: as for B1
B10: IL6R-BP209/IL6R-L (antibody, human IgG1, kappa, name in EU numbering)
heavy: B1 heavy with D235E, Y236L, Q269S, D298Y
light: not shown
notes: as for B1
B11: IL6R-BP151/IL6R-L (antibody, human IgG1, kappa, name in EU numbering)
heavy: B1 heavy with Q269S, D270H, G273P, D298Y
light: not shown
notes: as for B1
B12: IL6R-BP191/IL6R-L (antibody, human IgG1, kappa, name in EU numbering)
heavy: B1 heavy with Y236L, D239G, Q269S, D298Y, R332K
light: not shown
notes: as for B1
B13: IL6R-BP192/IL6R-L (antibody, human IgG1, kappa, name in EU numbering)
heavy: B1 heavy with Y236L, D239G, Q269S, A328K, R332K
light: not shown
notes: as for B1
B14: IL6R-BP187/IL6R-L (antibody, human IgG1, kappa, name in EU numbering)
heavy: B1 heavy with D235E, D239G, Q269S, D270H, D298Y, R332K
light: not shown
notes: as for B1
B15: IL6R-BP203/IL6R-L (antibody, human IgG1, kappa, name in EU numbering)
heavy: B1 heavy with D235E, Y236L, Q269S, D270H, D298Y, A328K
light: not shown
notes: as for B1
B16: IL6R-BP233/IL6R-L (antibody, human IgG1, kappa, name in EU numbering)
heavy: B1 heavy with D235E, Q269S, D270H, D298Y, A328K, R332K
light: not shown
notes: as for B1
B17: IL6R-BP243/IL6R-L (antibody, human IgG1, kappa, name in EU numbering)
heavy: B1 heavy with Q269S, D298Y, A328K
light: not shown
notes: as for B1
B18: IL6R-BP246/IL6R-L (antibody, human IgG1, kappa, name in EU numbering)
heavy: B1 heavy with Y236L
light: not shown
notes: as for B1
B19: IL6R-2B044/IL6R-L (antibody, human IgG1, kappa)
heavy: B1 heavy with D235E, Y236L, D239G, F243L, Q269S, D270H, G273P, D298Y, A328K, R332A
light: not shown
B20: IL6R-2B118/IL6R-L (antibody, human IgG1, kappa)
heavy: B1 heavy with D235E, Y236L, D239G, Q269S, D270H, G273P, Q297M, D298Y, A328K, R332A
light: not shown
B21: IL6R-2B137/IL6R-L (antibody, human IgG1, kappa)
heavy: B1 heavy with D235E, Y236L, D239G, Q269S, D270H, G273P, D298N, A328K, R332A
light: not shown
B22: IL6R-2B045/IL6R-L (antibody, human IgG1, kappa)
heavy: B1 heavy with D235E, Y236L, D239G, F243M, Q269S, D270H, G273P, D298Y, A328K, R332A
light: not shown
B23: IL6R-2B129/IL6R-L (antibody, human IgG1, kappa)
heavy: B1 heavy with D235E, Y236L, D239G, Q269S, D270H, G273P, D298E, A328K, R332A
light: not shown
B24: IL6R-2B124/IL6R-L (antibody, human IgG1, kappa)
heavy: B1 heavy with D235E, Y236L, D239G, Q269S, D270H, G273P, Q297V, D298Y, A328K, R332A
light: not shown
B25: IL6R-2B154/IL6R-L (antibody, human IgG1, kappa)
heavy: B1 heavy with D235E, Y236L, D239G, Q269S, D270H, G273P, D298Y, S300M, A328K, R332A
light: not shown
B26: IL6R-2B128/IL6R-L (antibody, human IgG1, kappa)
heavy: B1 heavy with D235E, Y236L, D239G, Q269S, D270H, G273P, A328K, R332A
light: not shown
B27: IL6R-2B132/IL6R-L (antibody, human IgG1, kappa)
heavy: B1 heavy with D235E, Y236L, D239G, Q269S, D270H, G273P, D298H, A328K, R332A
light: not shown
B28: IL6R-2B145/IL6R-L (antibody, human IgG1, kappa)
heavy: B1 heavy with D235E, Y236L, D239G, Q269S, D270H, G273P, D298Y, S300A, A328K, R332A
light: not shown
B29: IL6R-2B169/IL6R-L (antibody, human IgG1, kappa)
heavy: B1 heavy with D235E, Y236L, D239G, Q269S, D270H, G273P, D298Y, V325I, A328K, R332A
light: not shown
B30: IL6R-PD038/IL6R-L (antibody, human IgG1, kappa)
heavy: QVQLQESGPGLVKPSETLSLTCAVSGHSISHDHAWSWVRQPPGEGLEWIGFISYSGITNYNPSLQGRVTISRDNSKNTLYLQMNSLRAEDTAVYYCARSLARTTAMDYWGEGTLVTVSSASTKGPSVFPLAPSSKSTSGGTAALGCLVKDYFPEPVTVSWNSGALTSGVHTFPAVLQSSGLYSLSSVVTVPSSSLGTQTYICNVNHKPSNTKVDKKVEPKSCDKTHTCPPCPAPERLGGDSVFLFPPKPKDTLYISRTPEVTCVVVDVSHEDPEVKFNWYVDGVEVHNAKTKPREEQYNSTYRVVSVLTVLHQDWLNGKEYKCKVSNKALPAPIEKTISKAKGQPREPQVYTLPPSRDELTKNQVSLTCLVKGFYPSDIAVEWESNGQPENNYKTTPPVLDSDGSFFLYSKLTVDKSRWQQGNVFSCSVMHEALHYHYTQKSLSLSP
light: not shown
notes: human IgG1
B31: IL6R-PD072/IL6R-L (antibody, human IgG1, kappa)
heavy: B30 heavy with R236L, G238Q
light: not shown
notes: human IgG1
B32: IL6R-PD033/IL6R-L (antibody, human IgG1, kappa)
heavy: B30 heavy with R236K
light: not shown
notes: human IgG1
B33: IL6R-F652/IL6R-L (antibody, human IgG1, kappa)
heavy: B30 heavy with R236L
light: not shown
notes: human IgG1
B34: IL6R-PD026/IL6R-L (antibody, human IgG1, kappa)
heavy: B30 heavy with R236A
light: not shown
notes: human IgG1
B35: IL6R-PD035/IL6R-L (antibody, human IgG1, kappa)
heavy: B30 heavy with R236N
light: not shown
notes: human IgG1
B36: IL6R-PD031/IL6R-L (antibody, human IgG1, kappa)
heavy: B30 heavy with R236H
light: not shown
notes: human IgG1
B37: IL6R-PD044/IL6R-L (antibody, human IgG1, kappa)
heavy: B30 heavy with R236L, L237A
light: not shown
notes: human IgG1

molecular target: T1, FcγRIIb extracellular domain with …; experiment: SPR (Biacore), FcgR as analyte

Binder	Kd [nM]
B1	60
B2	500
B3	200
B4	1000
B5	40
B6	100
B7	40
B8	300
B9	50
B10	51
B11	40

molecular target: T2, FcγRIIa R type extracellular domain …; experiment: SPR (Biacore), FcgR as analyte

Binder	Kd [nM]
B12	3000
B13	2600
B7	840
B14	2800
B9	910
B15	990

molecular target: T7, FcγRIa extracellular domain with C-terminal His tag (human, UniProt P12314 16-292); experiment: SPR (Biacore), FcgR as analyte
T7 construct: also called FcgRIa
T7 sequence (P12314 16-292): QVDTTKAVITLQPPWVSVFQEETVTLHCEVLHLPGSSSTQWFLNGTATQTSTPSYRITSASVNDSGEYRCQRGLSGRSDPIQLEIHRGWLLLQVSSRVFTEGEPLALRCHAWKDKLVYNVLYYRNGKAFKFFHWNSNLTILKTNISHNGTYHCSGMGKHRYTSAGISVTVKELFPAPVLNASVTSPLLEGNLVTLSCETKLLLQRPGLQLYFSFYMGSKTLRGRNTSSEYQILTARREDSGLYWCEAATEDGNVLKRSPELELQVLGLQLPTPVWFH

Binder	Kd [nM]
B12	4
B13	6.6
B2	7
B4	9
B16	70
B14	25
B10	39
B17	3
B18	8
B15	180

molecular target: T3, FcγRIIa R type extracellular domain, …; experiment: SPR, bound amount per captured antibody

Binder	Relative FcgRIIaR-binding Activity
B19	55.7 % of IL6R-BF648/IL6R-L
B20	93.4 % of IL6R-BF648/IL6R-L
B21	77.7 % of IL6R-BF648/IL6R-L
B22	64.7 % of IL6R-BF648/IL6R-L
B23	68.4 % of IL6R-BF648/IL6R-L
B24	65.2 % of IL6R-BF648/IL6R-L
B25	77.5 % of IL6R-BF648/IL6R-L
B26	88.1 % of IL6R-BF648/IL6R-L
B27	66.9 % of IL6R-BF648/IL6R-L
B28	45.1 % of IL6R-BF648/IL6R-L
B29	90.8 % of IL6R-BF648/IL6R-L

molecular target: T4, FcγRIIb extracellular domain, His tag; experiment: SPR, bound amount per captured antibody

Binder	Relative FcgRIIb-binding Activity
B19	65.5 % of IL6R-BF648/IL6R-L
B20	96.3 % of IL6R-BF648/IL6R-L
B21	98.3 % of IL6R-BF648/IL6R-L
B22	81.1 % of IL6R-BF648/IL6R-L
B23	93.3 % of IL6R-BF648/IL6R-L
B24	72.9 % of IL6R-BF648/IL6R-L
B25	79.4 % of IL6R-BF648/IL6R-L
B26	102 % of IL6R-BF648/IL6R-L
B27	89.1 % of IL6R-BF648/IL6R-L
B28	55.5 % of IL6R-BF648/IL6R-L
B29	103 % of IL6R-BF648/IL6R-L

molecular target: T5, FcγRIIb extracellular domain with …; experiment: SPR; amount bound divided by amount of IL6R-F652/IL6R-L bound, x100

Binder	Relative FcgRIIb-binding Activity
B30	5.4
B31	10.4
B32	6.2
B33	100
B34	37.2
B35	38.3
B36	27.6
B37	7.9

molecular target: T6, FcγRIIa R type extracellular domain …; experiment: as above

Binder	Relative FcgRIIaR-binding Activity
B30	7.8
B31	20.6
B32	11.2
B33	100
B34	67.2
B35	44.4
B36	41.8
B37	37.7
